The values that follow come from paper PMC4347215.

The target in the test is recombinant CA/09 NA, thrombin-cleaved (His-tag depleted) (influenza A virus A/California/07/2009 (H1N1)pdm09) (UniProt C3W5S3). Description: crystal structure.

One may read the stoichiometry N as the number of molecules, sites or subunits per partner or assembly. Take “recombinant CA/09 NA, thrombin-cleaved (His-tag depleted) (from UniProt C3W5S3 82-467) (enzyme)”: the stoichiometry N turned out to be 4.
